Literature values as cited in US20220062372A1, “METHODS FOR TREATING DISEASE AND REDUCING DRUG-INDUCED LIVER INJURY IN PATIENT POPULATIONS” (Ten Peaks LLC, priority 2020, published 2022).

Conditions: background description of the marketed drug

B1: KEVZARA: IL-6 receptor antagonist (antibody, chains of the INN, looked up, V domains shown)
VH: EVQLVESGGGLVQPGRSLRLSCAASRFTFDDYAMHWVRQAPGKGLEWVSGISWNSGRIGYADSVKGRFTISRDNAENSLFLQMNGLRAEDTALYYCAKGRDSFDIWGQGTMVTVSS
VL: DIQMTQSPSSVSASVGDRVTITCRASQGISSWLAWYQQKPGKAPKLLIYGASSLESGVPSRFSGSGSGTDFTLTISSLQPEDFASYYCQQANSFPYTFGQGTKLEIK
  hepatic adverse reactions reported in patients: associated with a higher incidence of transaminase elevations
